Experiment [1] deals with T1, 27mer human CD3 polypeptide conjugated to biotin (human, conjugated to biotin (site not stated)).
T1 construct: The assay text says only '27mer human CD3 polypeptide'; also called HuCD3e pept biotin
T1 peptide: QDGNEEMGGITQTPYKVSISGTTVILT
Kind of experiment: BIAcore T200 SPR; biotin 27mer CD3 peptide on SA chip; TDB flowed; 37 C. The protocol:
The MD1 and MD4 variants thus retained the high affinity of 38E4v1. Assays were performed using a BIAcore T200: 27mer human and cyno CD3 polypeptides were conjugated to biotin and were immobilized on a SA CM5 chip, and TDBs were flowed through at 100 μl/min at 37° C.

In experiment [2] the target is T1, 27mer human CD3 polypeptide conjugated …. The description is as above. The protocol:
Assays were performed using a BIAcore T200. 27mer human and cyno CD3 polypeptides were conjugated to biotin and were immobilized on a SA CM5 chip. LY6G6D TDBs were flowed through at 37° C.

Experiment [3] addresses T2, human LY6G6D-Fc (human, UniProt O95868 20-104).
T2 construct: also called hu Ly6G6D; huLY6G6D; not shown: linker and Fc part
T2 sequence: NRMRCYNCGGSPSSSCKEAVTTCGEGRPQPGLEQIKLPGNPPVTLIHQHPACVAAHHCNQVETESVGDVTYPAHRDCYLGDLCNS
Kind of experiment: BIAcore SPR; LY6G6D-Fc on chip; TDB flowed; 37 C. The protocol: TDBs comprising the anti-LY6G6D arm 20Al2.QNTv12 and the anti-CD3 38E4.v1 (left panel; produced using a two-cell-manufacturing system), 38E4.v1 MD1 (center panel; produced using a one-cell-manufacturing system), or 38E4.v1 MD4 arm (right panel; produced using a one-cell-manufacturing system) were assayed for affinity for a human Ly6G6D polypeptide (FIG. 25) using a BIAcore assay.

Experiment [4] concerns the target T3, polypeptide comprising amino acids 93-104 of LY6G6D (HRDCYLGDLCNS) (human).
T3 construct: also called LY6G6D peptide
T3 peptide: HRDCYLGDLCNS
Kind of experiment: co-crystal structure, 2.2 A. As to the method: Ten 20A12.QNTv12 Fabs were tested.

Experiment [5] has as its target T2, human LY6G6D-Fc. Briefly: BIAcore SPR. As to the method: (§1) The humanized rb.20A12 variant 20A12.QNTv12, the humanized rb.6E10 variant 6E10.v114, and the anti-LY6G6D 1G4 arm were paired with the anti-CD3 38E4v1 or 40G5c arm as TDBs and tested for affinity to human and cynomolgus LY6G6D in a BIAcore® assay. Rabbit 20Al2, rabbit 6E10, and humanized 20A12.QNTv12 and 20A12.SNVv12 were additionally assayed for binding as antigen-binding fragments (Fabs). LY6G6D-Fc was directly immobilized on a chip, and TDBs were flowed through at 37° C., except for the rb6E10 Fab, which was assayed at 25° C.

Experiment [6] addresses T2, human LY6G6D-Fc. Briefly: BIAcore SPR; LY6G6D-Fc on chip; Fab flowed; 37 C. As to the method:
as §1

The target of experiment [7] is T2, human LY6G6D-Fc. Briefly: BIAcore SPR; LY6G6D-Fc on chip; TDB flowed; 37 C. As to the method:
TDBs comprising the anti-LY6G6D 20A12.QNTv12 arm and the anti-CD3 38E4.v1 arm (FIG. 24A) or 40G5C arm (FIG. 24B) were assayed for affinity for a human and cyno Ly6G6D polypeptide using a BIAcore assay. Ly6G6D-Fc was directly immobilized on the chip, and the TDB was flowed through at 37° C. Similar assays were performed for TDBs comprising the anti-LY6G6D 1G4 arm and the anti-CD3 38E4.v1 arm (FIG. 24C) or 40G5C arm (FIG. 24D).
The source holds these as a separate data set.

Experiment [8] concerns the target T2, human LY6G6D-Fc. Briefly: BIAcore SPR; chimeric Fab; Ly6G6D-Fc captured on Protein A chip; 37 C.
Experiment [9] deals with T3, polypeptide comprising amino acids …. Briefly: co-crystal structure.

“And” between values parts separate entries of the source, which are not always exact repeats. Equal values may be shown once. Read-outs that look alike come from different tables or passages of the source.

B1: LY6G6D TDB assembled using a one-cell system comprising the anti-LY6G6D 20A12.QNTv12 arm (one-cell) and the anti-CD3 38E4v1 MD4 arm (bispecific antibody, V domains shown)
VH 1: EVQLLESGGGLVQPGGSLRLSCAASGFDFVNNAMIWVREAPGKGLEWVSALSFADNTAYYATWASGRFTISRDSSKTTVYLQMNSLRAEDTAVYYCMRGDLWGPGTLVTVSS
VL 1: DIQMTQSPSTLSASVGDRVTITCQASESITRYLNWYQKKPGKAPKLLIYDASKLPSGVPSRFSGSGSGTEFTLTISSLQPDDFATYYCQSTSFRGRSYQNTFGGGTKVEIK
VH 2: EVQLVQSGAEVKKPGASVKVSCKASGFTFTSYYIHWVRKAPGQGLEWIGWIYPENDNTKYNEKFKDRVTITADTSTSTAYLELSSLRSEDTAVYYCARDGYSRYYFDYWGQGTLVTVSS
VL 2: DIVMTQSPDSLAVSLGERATINCKSSQSLLNSRTRKNYLAWYQEKPGQPPKLLIYWASTRKSGVPDRFSGSGSGTDFTLTISSLQAEDVAVYYCKQSFILRTFGQGTKVEIK
notes: also called 20A12.QNTv12.MD4/38E4v1; MD4 one-cell
B1: in [1], the Kd is 18.8 nM and 18.6 nM; the koff is 0.0544 s⁻¹ and 0.0495 s⁻¹; the kon was 2.89e+06 M⁻¹ s⁻¹ and 2.66e+06 M⁻¹ s⁻¹. Moreover, the Kd in experiment [2] is 18.7 nM. In the experiment with human LY6G6D-Fc [3], binding was characterised by a dissociation constant (Kd) of 1.89 nM, the koff worked out at 0.000559 s⁻¹ and the kon is 296000 M⁻¹ s⁻¹.

B2: hu20A12.QNTv12 Fab (Fab, V domains shown)
VH: EVQLLESGGGLVQPGGSLRLSCAASGFDFVNNAMIWVRQAPGKGLEWVSALSFADNTAYYATWASGRFTISRDSSKTTVYLQMNSLRAEDTAVYYCMRGDLWGPGTLVTVSS
VL: DIQMTQSPSTLSASVGDRVTITCQASESITRYLNWYQQKPGKAPKLLIYDASKLPSGVPSRFSGSGSGTEFTLTISSLQPDDFATYYCQSTSFRGRSYQNTFGGGTKVEIKR
For B2, the binding result in experiment [4] is recorded as “binds”. Moreover, the Kd in the experiment with human LY6G6D-Fc [5] worked out at 0.14 nM. In the experiment with human LY6G6D-Fc [6], this molecule showed a Kd of 0.136 nM, a koff of 0.000227 s⁻¹ and a kon of 1.67e+06 M⁻¹ s⁻¹.

B3: hu20A12.SNVv12 Fab (Fab, V domains shown)
VH: EVQLLESGGGLVQPGGSLRLSCAASGFDFVNNAMIWVRQAPGKGLEWVSALSFADNTAYYATWASGRFTISRDSSKTTVYLQMNSLRAEDTAVYYCMRGDLWGPGTLVTVSS
VL: DIQMTQSPSTLSASVGDRVTITCQASESITRYLNWYQQKPGKAPKLLIYDASKLPSGVPSRFSGSGSGTEFTLTISSLQPDDFATYYCQSTSFRGRSYSNVFGGGTKVEIKR
In the experiment with human LY6G6D-Fc [6], B3 came in with a Kd of 0.0195 nM, a koff of 4.26e-05 s⁻¹ and a kon of 2.18e+06 M⁻¹ s⁻¹.

B4: LY6G6D TDB comprising the anti-LY6G6D 1G4 arm and the anti-CD3 38E4.v1 arm (bispecific antibody, V domains shown)
VH 1: EVQLVQSGAEVKKPGASVKVSCKASGYTFTTYVMHWVRQAPGQGLEWMGYINPYNDGTKYNEKFKGRVTMTRDTSISTAYMELSRLRSDDTAVYYCGRRNFDYWGQGTLVTVSS
VL 1: DIVMTQSPDSLAVSLGERATINCKSSQSLLLSGNQENYLAWHQQKPGQPPKTLITWASTRISGVPDRFSGSGSGTDFTLTISSLQAEDVAVYYCQQSYSAPYTFGGGTKVEIK
VH 2: EVQLVQSGAEVKKPGASVKVSCKASGFTFTSYYIHWVRQAPGQGLEWIGWIYPENDNTKYNEKFKDRVTITADTSTSTAYLELSSLRSEDTAVYYCARDGYSRYYFDYWGQGTLVTVSS
VL 2: DIVMTQSPDSLAVSLGERATINCKSSQSLLNSRTRKNYLAWYQQKPGQSPKLLIYWTSTRKSGVPDRFSGSGSGTDFTLTISSLQAEDVAVYYCKQSFILRTFGQGTKVEIK
notes: also called 1G4/38E4v1
On to B4, for which, in the experiment with human LY6G6D-Fc [7], the Kd turned out to be 16.3 nM, the koff is 0.00886 s⁻¹ and the kon came out at 544000 M⁻¹ s⁻¹.

B5: LY6G6D TDB assembled using a one-cell system comprising the anti-LY6G6D 20A12.QNTv12 arm (one-cell) and the anti-CD3 38E4v1 (WT) arm (bispecific antibody, V domains shown)
VH 1: EVQLLESGGGLVQPGGSLRLSCAASGFDFVNNAMIWVREAPGKGLEWVSALSFADNTAYYATWASGRFTISRDSSKTTVYLQMNSLRAEDTAVYYCMRGDLWGPGTLVTVSS
VL 1: DIQMTQSPSTLSASVGDRVTITCQASESITRYLNWYQKKPGKAPKLLIYDASKLPSGVPSRFSGSGSGTEFTLTISSLQPDDFATYYCQSTSFRGRSYQNTFGGGTKVEIK
VH 2: EVQLVQSGAEVKKPGASVKVSCKASGFTFTSYYIHWVRKAPGQGLEWIGWIYPENDNTKYNEKFKDRVTITADTSTSTAYLELSSLRSEDTAVYYCARDGYSRYYFDYWGQGTLVTVSS
VL 2: DIVMTQSPDSLAVSLGERATINCKSSQSLLNSRTRKNYLAWYQEKPGQSPKLLIYWTSTRKSGVPDRFSGSGSGTDFTLTISSLQAEDVAVYYCKQSFILRTFGQGTKVEIK
notes: also called WT one-cell; one-cell WT
Turning to B5, in experiment [1], the Kd was 19.9 nM and 21.3 nM; the off-rate constant (koff) was 0.0516 s⁻¹ and 0.0498 s⁻¹; the kon was 2.59e+06 M⁻¹ s⁻¹ and 2.34e+06 M⁻¹ s⁻¹. Also, the Kd in experiment [2] was 20.6 nM.

B6: LY6G6D TDB assembled using a one-cell system comprising the anti-LY6G6D 20A12.QNTv12 arm (one-cell) and the anti-CD3 38E4v1 MD1 arm (bispecific antibody, V domains shown)
VH 1: EVQLLESGGGLVQPGGSLRLSCAASGFDFVNNAMIWVREAPGKGLEWVSALSFADNTAYYATWASGRFTISRDSSKTTVYLQMNSLRAEDTAVYYCMRGDLWGPGTLVTVSS
VL 1: DIQMTQSPSTLSASVGDRVTITCQASESITRYLNWYQKKPGKAPKLLIYDASKLPSGVPSRFSGSGSGTEFTLTISSLQPDDFATYYCQSTSFRGRSYQNTFGGGTKVEIK
VH 2: EVQLVQSGAEVKKPGASVKVSCKASGFTFTSYYIHWVRKAPGQGLEWIGWIYPENDNTKYNEKFKDRVTITADTSTSTAYLELSSLRSEDTAVYYCARDGYSRYYFDYWGQGTLVTVSS
VL 2: DIVMTQSPDSLAVSLGERATINCKSSQSLLNSRTRKNYLAWYQEKPGQPPKLLIYWASTRESGVPDRFSGSGSGTDFTLTISSLQAEDVAVYYCTQSFILRTFGQGTKVEIK
notes: also called 20A12.QNTv12.MD1/38E4v1; MD1 one-cell
On to B6, for which, in experiment [1], the Kd is 32.8 nM and 32.4 nM; the koff is 0.0504 s⁻¹ and 0.0456 s⁻¹; the kon was 1.54e+06 M⁻¹ s⁻¹ and 1.41e+06 M⁻¹ s⁻¹. The same molecule gave a Kd in [2] of 32.6 nM. Further, in the experiment with human LY6G6D-Fc [3], the dissociation constant (Kd) came to 1.9 nM, the dissociation rate constant (koff) stood at 0.000796 s⁻¹ and the kon stood at 420000 M⁻¹ s⁻¹.

B7: rb20A12.IA (C35I-C50A) chimeric Fab (Fab, V domains shown)
VH: QQQLEESGGDLVKPGASLTLTCTASGFDFVNNAMIWVRQAPGKGLEWIAALSFADNTAYYATWASGRFTISKISSTTVTLRMTSLTGADTATYFCMRGDLWGPGTLVTVSS
VL: DIVMTQTPSSVSAAVGGTVTINCQASESITRYLNWYQQKPGQPPKLLIYDASKLPSGVPSRFKGSGSGTQFTLTTSDLECADAATYYCQSTSFRGRSYNNTFGGGTEVVVK
notes: also called rabbit 20A12 comprising C35I and C50A (IA) mutations
B7 had a Kd with human LY6G6D-Fc [8] of 0.86 nM.

B8: 1G4 Fab (Fab, V domains shown)
VH: EVQLVQSGAEVKKPGASVKVSCKASGYTFTTYVMHWVRQAPGQGLEWMGYINPYNDGTKYNEKFKGRVTMTRDTSISTAYMELSRLRSDDTAVYYCGRRNFDYWGQGTLVTVSS
VL: DIVMTQSPDSLAVSLGERATINCKSSQSLLLSGNQENYLAWHQQKPGQPPKTLITWASTRISGVPDRFSGSGSGTDFTLTISSLQAEDVAVYYCQQSYSAPYTFGGGTKVEIKR
notes: also called Fab of 1G4
As for B8, the binding result in [9] is recorded as “binds”.

Source of the values: US20210179715A1 (Genentech, published 2021).
